T1: FcγRIIa(R) extracellular domain, His-tagged (human, UniProt P12318 34-217)
T1 construct: extracellular domain; also called 2aR
T1 sequence: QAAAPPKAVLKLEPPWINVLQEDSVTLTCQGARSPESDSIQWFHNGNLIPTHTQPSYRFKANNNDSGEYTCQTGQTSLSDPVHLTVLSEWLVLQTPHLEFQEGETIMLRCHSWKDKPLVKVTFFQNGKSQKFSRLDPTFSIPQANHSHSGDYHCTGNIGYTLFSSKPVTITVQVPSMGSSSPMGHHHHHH

T2: FcγRIIb extracellular domain, His-tagged (human, UniProt P31994 43-217)
T2 construct: extracellular domain; also called 2b
T2 sequence: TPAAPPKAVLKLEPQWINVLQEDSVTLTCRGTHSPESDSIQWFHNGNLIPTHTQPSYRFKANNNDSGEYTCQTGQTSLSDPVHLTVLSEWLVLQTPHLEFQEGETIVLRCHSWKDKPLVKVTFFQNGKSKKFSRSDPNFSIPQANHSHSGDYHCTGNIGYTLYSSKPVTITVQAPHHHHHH

T3: FcγRIIa(H) extracellular domain, His-tagged (human, UniProt P12318 34-217)
T3 construct: extracellular domain; also called 2aH
T3 sequence: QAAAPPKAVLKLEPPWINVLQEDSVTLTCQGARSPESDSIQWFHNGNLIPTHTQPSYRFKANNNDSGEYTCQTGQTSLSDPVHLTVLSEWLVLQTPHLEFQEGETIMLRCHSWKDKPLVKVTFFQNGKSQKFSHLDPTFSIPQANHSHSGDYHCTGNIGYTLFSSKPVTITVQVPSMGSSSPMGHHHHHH

T4: FcγRIIb (human, UniProt P31994 43-217)
T4 construct: extracellular domain; also called 2b
T4 sequence: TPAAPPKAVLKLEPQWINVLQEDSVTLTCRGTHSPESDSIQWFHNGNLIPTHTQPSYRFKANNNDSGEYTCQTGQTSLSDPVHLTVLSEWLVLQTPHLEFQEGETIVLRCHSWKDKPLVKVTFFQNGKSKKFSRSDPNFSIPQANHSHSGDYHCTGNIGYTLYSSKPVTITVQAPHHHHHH

T5: FcγRIIa(H) (human, UniProt P12318 34-217)
T5 construct: extracellular domain; also called 2aH
T5 sequence: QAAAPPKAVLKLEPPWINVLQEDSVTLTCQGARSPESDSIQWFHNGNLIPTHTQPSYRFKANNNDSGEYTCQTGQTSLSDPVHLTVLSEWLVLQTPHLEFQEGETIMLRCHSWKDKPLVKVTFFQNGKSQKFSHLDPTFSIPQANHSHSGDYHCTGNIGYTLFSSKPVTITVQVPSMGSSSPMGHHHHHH

T6: FcγRIIa(R) (human, UniProt P12318 34-217)
T6 construct: extracellular domain; also called 2aR
T6 sequence: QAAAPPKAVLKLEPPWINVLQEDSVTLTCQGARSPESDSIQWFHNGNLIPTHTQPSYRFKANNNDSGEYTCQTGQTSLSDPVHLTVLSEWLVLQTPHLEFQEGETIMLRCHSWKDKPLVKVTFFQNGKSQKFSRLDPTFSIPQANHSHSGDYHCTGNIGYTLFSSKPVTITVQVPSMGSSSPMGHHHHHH

B1: GpH7-A5/GpH7-B3 variant V266_07I/GpL16-k0 (antibody, human IgG1, kappa)
heavy 1: not shown
heavy 2: not shown
light: DIVMTQSPLSLPVTPGEPASISCQASESLVHSNRNTYLHWYLQKPGQSPQLLIYKVSNRFSGVPDRFSGSGSGTDFTLKISRVEAEDVGVYYCSQNTHVPPTFGQGTKVEIERTVAAPSVFIFPPSDEQLKSGTASVVCLLNNFYPREAKVQWKVDNALQSGNSQESVTEQDSKDSTYSLSSTLTLSKADYEKHKVYACEVTHQGLSSPVTKSFNRGEC
B2: GpH7-A5/GpH7-B3 variant V266_08L/GpL16-k0 (antibody, human IgG1, kappa)
heavy 1: not shown
heavy 2: not shown
light: DIVMTQSPLSLPVTPGEPASISCQASESLVHSNRNTYLHWYLQKPGQSPQLLIYKVSNRFSGVPDRFSGSGSGTDFTLKISRVEAEDVGVYYCSQNTHVPPTFGQGTKVEIERTVAAPSVFIFPPSDEQLKSGTASVVCLLNNFYPREAKVQWKVDNALQSGNSQESVTEQDSKDSTYSLSSTLTLSKADYEKHKVYACEVTHQGLSSPVTKSFNRGEC
B3: GpH7-A5/GpH7-B3 variant S324_14T/GpL16-k0 (antibody, human IgG1, kappa)
heavy 1: not shown
heavy 2: not shown
light: DIVMTQSPLSLPVTPGEPASISCQASESLVHSNRNTYLHWYLQKPGQSPQLLIYKVSNRFSGVPDRFSGSGSGTDFTLKISRVEAEDVGVYYCSQNTHVPPTFGQGTKVEIERTVAAPSVFIFPPSDEQLKSGTASVVCLLNNFYPREAKVQWKVDNALQSGNSQESVTEQDSKDSTYSLSSTLTLSKADYEKHKVYACEVTHQGLSSPVTKSFNRGEC
notes: He Ab: heterodimerized IgG1, one H chain mutated
B4: GpH7-A5/GpH7-B3 variant A327_05P/GpL16-k0 (antibody, human IgG1, kappa)
heavy 1: not shown
heavy 2: not shown
light: DIVMTQSPLSLPVTPGEPASISCQASESLVHSNRNTYLHWYLQKPGQSPQLLIYKVSNRFSGVPDRFSGSGSGTDFTLKISRVEAEDVGVYYCSQNTHVPPTFGQGTKVEIERTVAAPSVFIFPPSDEQLKSGTASVVCLLNNFYPREAKVQWKVDNALQSGNSQESVTEQDSKDSTYSLSSTLTLSKADYEKHKVYACEVTHQGLSSPVTKSFNRGEC
notes: as for B3
B5: GpH7-A5/GpH7-B3 variant A327_06M/GpL16-k0 (antibody, human IgG1, kappa)
heavy 1: not shown
heavy 2: not shown
light: DIVMTQSPLSLPVTPGEPASISCQASESLVHSNRNTYLHWYLQKPGQSPQLLIYKVSNRFSGVPDRFSGSGSGTDFTLKISRVEAEDVGVYYCSQNTHVPPTFGQGTKVEIERTVAAPSVFIFPPSDEQLKSGTASVVCLLNNFYPREAKVQWKVDNALQSGNSQESVTEQDSKDSTYSLSSTLTLSKADYEKHKVYACEVTHQGLSSPVTKSFNRGEC
notes: as for B3
B6: GpH7-A5/GpH7-B3 variant A327_09D/GpL16-k0 (antibody, human IgG1, kappa)
heavy 1: not shown
heavy 2: not shown
light: DIVMTQSPLSLPVTPGEPASISCQASESLVHSNRNTYLHWYLQKPGQSPQLLIYKVSNRFSGVPDRFSGSGSGTDFTLKISRVEAEDVGVYYCSQNTHVPPTFGQGTKVEIERTVAAPSVFIFPPSDEQLKSGTASVVCLLNNFYPREAKVQWKVDNALQSGNSQESVTEQDSKDSTYSLSSTLTLSKADYEKHKVYACEVTHQGLSSPVTKSFNRGEC
notes: as for B3
B7: GpH7-A5/GpH7-B3 variant A327_10E/GpL16-k0 (antibody, human IgG1, kappa)
heavy 1: not shown
heavy 2: not shown
light: DIVMTQSPLSLPVTPGEPASISCQASESLVHSNRNTYLHWYLQKPGQSPQLLIYKVSNRFSGVPDRFSGSGSGTDFTLKISRVEAEDVGVYYCSQNTHVPPTFGQGTKVEIERTVAAPSVFIFPPSDEQLKSGTASVVCLLNNFYPREAKVQWKVDNALQSGNSQESVTEQDSKDSTYSLSSTLTLSKADYEKHKVYACEVTHQGLSSPVTKSFNRGEC
notes: as for B3

Key:
[1] = target: T1, FcγRIIa(R) extracellular domain, …; assay: SPR, vs GpH7-A5/GpH7-B3/GpL16-k0 =100
[2] = target: T7, FcγRIIIa extracellular domain, His-tagged (human, UniProt P08637 17-208); assay: SPR, vs GpH7-A5/GpH7-B3/GpL16-k0 =100
T7 construct: extracellular domain; also called 3a

[3] = target: T2, FcγRIIb extracellular domain, His-tagged; assay: SPR, vs GpH7-A5/GpH7-B3/GpL16-k0 =100
[4] = target: T3, FcγRIIa(H) extracellular domain, …; assay: SPR, vs GpH7-A5/GpH7-B3/GpL16-k0 =100
[5] = target: T8, FcγRIa extracellular domain, His-tagged (human, UniProt P12314 16-292); assay: SPR, vs GpH7-A5/GpH7-B3/GpL16-k0 =100
T8 construct: extracellular domain; also called 1a

FcγRIIb = target: T4, FcγRIIb; assay: SPR, relative to GpH7-A5/GpH7-B3/GpL16-k0 =100
FcγRIa = target: T9, FcγRIa (human, UniProt P12314 16-292); assay: SPR, relative to GpH7-A5/GpH7-B3/GpL16-k0 =100
T9 construct: extracellular domain; also called 1a

FcγRIIa(H) = target: T5, FcγRIIa(H); assay: SPR, relative to GpH7-A5/GpH7-B3/GpL16-k0 =100
FcγRIIa(R) = target: T6, FcγRIIa(R); assay: SPR, relative to GpH7-A5/GpH7-B3/GpL16-k0 =100

T9 sequence (P12314 other isoform, or with tags, fused parts or gaps): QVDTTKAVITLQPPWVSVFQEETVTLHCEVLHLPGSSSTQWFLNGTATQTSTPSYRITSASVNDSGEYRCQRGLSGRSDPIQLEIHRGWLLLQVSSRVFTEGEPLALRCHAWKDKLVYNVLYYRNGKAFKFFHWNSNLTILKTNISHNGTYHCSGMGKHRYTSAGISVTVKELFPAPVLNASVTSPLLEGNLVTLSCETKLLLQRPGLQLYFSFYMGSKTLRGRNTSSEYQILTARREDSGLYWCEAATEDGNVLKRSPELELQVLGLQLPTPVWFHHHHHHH
T8 sequence (P12314 other isoform, or with tags, fused parts or gaps): as above
T7 sequence (P08637 other isoform, or with tags, fused parts or gaps): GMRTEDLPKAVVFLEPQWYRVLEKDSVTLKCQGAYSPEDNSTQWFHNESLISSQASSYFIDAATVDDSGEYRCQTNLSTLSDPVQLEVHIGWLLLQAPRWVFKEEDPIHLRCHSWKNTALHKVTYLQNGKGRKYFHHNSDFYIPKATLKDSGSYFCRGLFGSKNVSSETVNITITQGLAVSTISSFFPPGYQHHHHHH

Binder | He/Con 2aR [1] | He/Con 3a [2] | He/Con 2b [3] | He/Con 2aH [4] | He/Con 1a [5] | He/Con 2b (FcγRIIb) [%] | He/Con 1a (FcγRIa) [%] | He/Con 2aH (FcγRIIa(H)) [%] | He/Con 2aR (FcγRIIa(R)) [%]
B1 | 129 % of control | 113 % of control | 160 % of control | 107 % of control | 96.1 % of control | – | – | – | –
B2 | 152 % of control | 117 % of control | 248 % of control | 106 % of control | 94.9 % of control | – | – | – | –
B3 | – | – | – | – | – | 115 | 114 | 107 | 93.9
B4 | – | – | – | – | – | 86.3 | 102 | 67.9 | 80.6
B5 | – | – | – | – | – | 74.1 | 106 | 89.3 | 80
B6 | – | – | – | – | – | 214 | 105 | 124 | 159
B7 | – | – | – | – | – | 175 | 106 | 108 | 142
